From paper PMC5640804

Experiments:
[1] = target: yeast Golgi t-SNARE complex Sed5/Sec22/Bos1 with G176W Bos1, preassembled and reconstituted into acceptor liposomes (S. cerevisiae) (UniProt Q01590)
[2] = target: yeast Golgi t-SNARE complex Sed5/Sec22/Bos1 with D196del Bos1, preassembled and reconstituted into acceptor liposomes (S. cerevisiae) (UniProt Q01590)

B1: yeast Golgi v-SNARE Bet1, reconstituted into fluorescent donor liposomes (natural protein)
chain: MSSRFAGGNAYQRDTGRTQLFGPADGSNSLDDNVSSALGSTDKLDYSQSTLASLESQSEEQMGAMGQRIKALKSLSLKMGDEIRGSNQTIDQLGDTFHNTSVKLKRTFGNMMEMARRSGISIKTWLIIFFMVGVLFFWVWIT
liposome fusion assay (NBD fluorescence), reduction in fusion against WT Bos1; still above the control without Bet1 (% reduction in fusion) [1]: 30 | liposome fusion assay (NBD fluorescence), reduction in fusion against WT Bos1; still above the control without Bet1 (% reduction in fusion) [2]: 60
